# Measured values reported in publication PMC10412574, “Auranofin targets UBA1 and enhances UBA1 activity by facilitating ubiquitin trans-thioesterification to E2 ubiquitin-conjugating enzymes” (Nature Communications, 2023).
# B1: MBP-UFD (942-1058) (domain or fragment)
# chain: not shown
# notes: UBA1 C-terminal ubiquitin fold domain (UFD), aa942-1058; The pull-down methods name the construct 'AAD-UFD'; also called UFD fragment of UBA1
# B2: MBP-UFD (C1040A) (domain or fragment)
# chain: not shown
# notes: UBA1 ubiquitin fold domain (UFD), aa942-1058, with C1040A; also called MBP-UFD with cysteine mutation; source: recombinant
# B3: MBP-UFD (C1039A) (domain or fragment)
# chain: not shown
# notes: UBA1 ubiquitin fold domain (UFD), aa942-1058, with C1039A; also called MBP-UFD with cysteine mutation; source: recombinant
# Assays:
# recombinant UBE2K = molecular target: T1, recombinant UBE2K (UniProt P61086 1-200); assay: pull-down; MBP fusions of UBA1 fragments (5 ug) on beads, treated with AF 1.5 h and washed, then incubated with recombinant E2 2 h at room temperature in 150 mM NaCl, 10 mM Tris/HCl pH 7.4, 1 mM EDTA, 1 mM EGTA, 0.2% NP-40; immunoblot; in Fig. 2a also after iodoacetamide or with DTT; details: both partners purified
# T1 construct: UBE2K, ubiquitin-conjugating enzyme E2 K, recombinant; source: bought: R&D Systems (NBP2-35096)
# T1 sequence (looked up): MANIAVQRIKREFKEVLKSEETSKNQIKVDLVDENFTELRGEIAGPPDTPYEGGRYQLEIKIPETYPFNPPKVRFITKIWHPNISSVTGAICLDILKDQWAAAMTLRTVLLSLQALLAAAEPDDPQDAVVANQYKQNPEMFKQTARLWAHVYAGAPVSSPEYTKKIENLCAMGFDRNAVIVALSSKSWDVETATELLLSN
# recombinant UBE2G2 = molecular target: T2, recombinant UBE2G2 (UniProt P60604 1-165); assay: as above; details: both partners purified
# T2 construct: UBE2G2, ubiquitin-conjugating enzyme E2 G2, recombinant; Called His-UBE2G2 only in the charging assays; no tag is named for the pull-downs; also called His-UBE2G2; source: bought: R&D Systems (E2-680-100)
# T2 sequence: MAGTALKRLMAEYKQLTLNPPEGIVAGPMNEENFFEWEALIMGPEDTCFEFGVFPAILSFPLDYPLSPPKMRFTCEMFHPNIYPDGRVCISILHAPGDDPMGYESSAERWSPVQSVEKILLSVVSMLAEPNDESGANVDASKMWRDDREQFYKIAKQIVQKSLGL
Binder,binding result (recombinant UBE2K),binding result (recombinant UBE2G2)
B1,binds,binds
B2,–,binds
B3,–,binds
